Consider five molecules from CN117843801A (BEILAI PHARMACEUTICAL CO LTD, dated 2024).

In assay [1] the target is IL-17RA and IL-17RC co-expressed on 293F-IL-17RA-IL-17Rc-ACT1-NFκB-Luc cells (UniProt Q96F46). Nature of the assay: FACS, IL-17A on 293 cells overexpressing IL-17RA and IL-17RC.
Assay [2] deals with T1, Human IL-17A重组蛋白 (IL-17A-His) (human, UniProt Q16552 24-155, biotin label in the ELISA of Example 2 (Biotin-IL-17A-His); site not stated). Nature of the assay: cell-based or functional assay.
T1 sequence (Q16552 other isoform, or with tags, fused parts or gaps limits assumed): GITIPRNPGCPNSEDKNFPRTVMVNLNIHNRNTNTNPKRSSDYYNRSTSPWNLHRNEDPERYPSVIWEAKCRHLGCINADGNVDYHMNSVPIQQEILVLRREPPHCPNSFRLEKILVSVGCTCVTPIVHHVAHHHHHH
Assay [3] addresses T1, Human IL-17A重组蛋白 (IL-17A-His). Nature of the assay: ELISA, antibody coated at 2 ug/mL, Biotin-IL-17A-His titrated from 10 ug/mL (5-fold, 7 points), HRP-streptavidin. For orientation: ELISA stands for enzyme-linked immunosorbent assay.

Where only a bound is given, the exact number is not on record here.

The molecule “Human IL-17A重组蛋白 (IL-17A-His) (from UniProt Q16552 24-155) (ligand)” gave a 阳性率 in assay [1] of over 90%.

B1: 串联纳米抗体C11-1-F2 (Fc fusion)
chain: DVQLVESGGGLVQPGGSLRLSCAASESLLRLYAMGWYRQLPGQEREWVAIHTTSDTTNYRDSVKGRFTLSRDVATNTIYLQMTSLKPEDTAVYYCHVTSMRDSQNYWGQGTQVTVSSGGGGSGGGGSGGGGSQVQLVESGGGLVQPGGSMRLSCAASTIGLSIYSGAWYRQAAGKQRELVARITRRGVTNYADSVKGRFTISKDNAKNTVSLEMNSLKPEDTAVYYCNVGGEDGYWGQGTQVTVSS
With B1, the “IC50, 阻断活性 (reporter cells)” value in assay [2] was determined as 1.16 µg/mL. Besides, the EC50 (in general, the concentration that produces a half-maximal response) in assay [3] was 0.745 µg/mL.

B2: 单域抗体(2)(1-F2) (Fc fusion)
chain: QVQLVESGGGLVQPGGSMRLSCAASTIGLSIYSGAWYRQAAGKQRELVARITRRGVTNYADSVKGRFTISKDNAKNTVSLEMNSLKPEDTAVYYCNVGGEDGYWGQGTQVTVSS
For B2, the “IC50, 阻断活性 (reporter cells)” value in assay [2] was found to be 14.2 µg/mL. This molecule also displayed an EC50 in assay [3] of 4.04 µg/mL.

B3: Ixekizumab (antibody, human IgG4 S228P, kappa, V domains shown)
VH: QVQLVQSGAEVKKPGSSVKVSCKASGYSFTDYHIHWVRQAPGQGLEWMGVINPMYGTTDYNQRFKGRVTITADESTSTAYMELSSLRSEDTAVYYCARYDYFTGTGVYWGQGTLVTVSS
VL: DIVMTQTPLSLSVTPGQPASISCRSSRSLVHSRGNTYLHWYLQKPGQSPQLLIYKVSNRFIGVPDRFSGSGSGTDFTLKISRVEAEDVGVYYCSQSTHLPFTFGQGTKLEIKR
notes: Made in house from the variable regions cloned into pcDNA3.4-hIgG4 and pcDNA3.4-hIgKc vectors; positive control; also called 阳性对照抗体Ixekizumab; 对照抗体Ixekizumab
For the molecule B3, in assay [2], the “IC50, 阻断活性 (reporter cells)” value came out at 1.36 µg/mL. The EC50 in assay [3] came out at 10.1 µg/mL.

B4: 单域抗体(1)(1-C11) (Fc fusion)
chain: DVQLVESGGGLVQPGGSLRLSCAASESLLRLYAMGWYRQLPGQEREWVAIHTTSDTTNYRDSVKGRFTLSRDVATNTIYLQMTSLKPEDTAVYYCHVTSMRDSQNYWGQGTQVTVSS
B4: the “IC50, 阻断活性 (reporter cells)” value in assay [2] came out at 18.8 µg/mL. The molecule further returned an EC50 in assay [3] of 30 µg/mL.
